Results from the Human Domainome abundance scans (Beltran et al. 2025).

B1: E3 ubiquitin-protein ligase TRIM36, residues 208 to 252; numbered along this chain, Q9NQ86 (parent)
chain: KILMCPEHETERINMYCELCRRPVCHLCKLGGNHANHRVTTMSSA
B2: Bromodomain adjacent to zinc finger domain protein 2B, residues 1927 to 1982; numbered along this chain, Q9UIF8 (parent)
chain: KSIMKVYCQICRKGDNEELLLLCDGCDKGCHTYCHRPKITTIPDGDWFCPACIAKA

Variants of: B1
Experiment: abundance fitness (aPCA) (normalised: wild type 0, dead -1); higher = more abundant; growth selection in yeast, the domain comes from the species named
Conditions: Homo sapiens

Abundance fitness, by site and new letter:
G31: F -0.218 | C -0.094 | I -0.203 | S -0.007 | A -0.034 | Y -0.176 | H -0.08 | T 0
H8: R -0.841 | V -1.13 | D -0.858 | Q -0.716
V39: S 0.008 | R -0.064 | T 0.054 | D 0.079 | L -0.007
P23: V -0.081 | K -0.146
C5: S -0.765 | D -0.536 | I -1.14 | F -1.08 | G -0.744 | K -0.688
K1: M -0.277 | Y -0.497
T10: V -0.161 | R -0.039 | A -0.12
R38: Q 0.024 | C 0.017 | N -0.002 | V 0.036
M15: C 0.12 | R -0.329 | Q -0.285 | V -0.309 | T -0.08
R22: F -0.113 | D -0.197 | Y -0.265 | H 0.013 | I -0.227 | K 0.068 | N -0.291 | G -0.116
N14: F 0.08 | C 0.106 | M 0.073 | W -0.224 | E 0.048 | V 0.034 | H 0.055 | G -0.152 | A -0.037
A35: N -0.339 | E 0.009
E18: Q -0.08 | A -0.145 | T -0.147 | H -0.343 | M -0.178
L19: D 0.021 | E 0.117 | I 0.04 | N 0.169 | M 0.004
N36: S -0.052 | E 0.039 | W -0.299
C17: F -1.21 | P -0.705 | Q -0.954
H26: F -0.307 | D 0.04 | N -0.215 | R -0.05 | V -0.016 | Y 0.343 | S 0.004 | E -0.022 | L -0.161
T40: I -0.265 | N 0.141 | W -0.287 | S -0.025
Y16: M 0.11 | L -0.053 | R -0.069
E11: K -0.259 | W -0.52 | V -0.126 | S -0.132
H34: K -0.485 | M -0.431 | W -0.733 | D -0.326 | V -0.444 | G -0.288
C25: H -0.603 | K -0.572 | A -0.603 | P -0.723 | T -0.612
M4: P -0.288 | Q -0.181 | I -0.063 | D -0.189 | Y 0.031 | C -0.075 | K -0.054 | E -0.173 | N -0.101
S43: F -0.415 | A 0.001 | I -0.272 | C -0.129
V24: L -0.129 | A -0.153 | Q -0.431
H37: E -0.038 | M -0.298 | I -0.529 | Y -0.36 | W -0.44 | S -0.198 | Q -0.119
I13: P 0.166
S44: A 0.031 | P 0.034 | D 0.069 | M -0.138 | Q -0.038 | I -0.246 | L -0.179 | N -0.038
T41: L -0.149 | Y -0.29 | H -0.526 | I -0.158 | R -0.093 | D -0.026 | P -0.059 | Q -0.11
M42: A 0.12 | F -0.034 | G 0.123
P6: G -0.14 | D -0.092 | W -0.378 | K 0.023 | T 0.018
E9: M -0.099 | A -0.043 | L -0.04 | P 0.075 | Y -0.076
I2: C -0.345 | V -0.157 | M -0.068 | R -0.243
R12: W -0.269 | D -0.539 | K -0.365 | S -0.38
K29: G -0.009 | H -0.066 | S 0.003 | W -0.12
L3: P -0.128 | R -0.114 | F -0.04 | T 0.036 | C -0.055
L27: A 0.052 | D -0.202 | R 0.015 | C -0.196
L30: A 0.094 | F -0.206 | R 0.045
E7: A -0.064 | T -0.042 | L -0.127
C20: P -0.819 | E -0.491 | W -1.16
A45: C -0.482 | Q -0.21 | L -0.156 | N -0.549
G32: N -0.228 | R -0.138 | F -0.243 | C -0.132 | I -0.276
N33: D 0.007 | S 0.036 | T 0.044 | K 0.016 | M -0.015 | G 0.028 | V 0.039
R21: E 0.171 | D 0.067 | A 0.002 | N -0.121
C28: V -0.525 | F -1.14 | W -0.91 | K -0.592 | S -0.445 | N -0.546 | H -0.763 | G -0.608

Variants of: B2
Experiment: as above
Conditions: Homo sapiens

Abundance fitness of substitutions, site by site:
P50: R 0.183 | G -0.235 | A -0.074 | L -0.71
A56: R 0.174 | T -0.155 | C -0.211 | Q -0.176 | D -0.019 | G -0.364 | P -0.533 | V 0.045 | W -0.331 | M -0.28 | S -0.317
K55: C -0.154 | G 0.058 | Q -0.171
C49: D -0.244 | M -0.859 | S -0.838 | V -1.03 | N -0.816 | F -1.04 | H -0.333 | G -0.788 | Q -0.959 | R -0.822 | L -1.04 | Y -1.11 | P -0.993 | A -0.82 | I -0.859 | W -0.932 | K -0.83
A51: N -0.064 | V -0.095 | D 0.026 | T 0.016 | R -0.087 | W -0.175 | S -0.024 | Q -0.169 | H -0.214 | C -0.124 | Y -0.346 | G 0.033 | M 0.022 | E 0.028 | I -0.14 | K -0.162 | L -0.045 | F -0.385
I53: W -0.179 | H -0.083 | N -0.242 | F -0.072 | C -0.051 | D -0.006 | T -0.225 | R -0.087 | A -0.037 | K -0.089 | G -0.03 | P 0.118 | Y -0.026 | L 0.043 | M 0.021 | V -0.004 | S -0.033 | E 0.016
C52: T -0.539 | Q -0.531 | F -0.736 | W -0.971 | E -0.581 | K -0.486 | N -0.523 | R -0.581 | M -0.487 | L -0.891 | V -0.905 | G -0.544 | S -0.652 | Y -0.666 | A -0.661 | H -0.392 | P -0.833 | D -0.43
A54: L 0.032 | R -0.211 | P 0.048 | G -0.086 | K -0.036 | F -0.093 | H -0.164 | Q 0.066 | N -0.136 | V -0.053 | C -0.095 | M -0.309 | I -0.265 | D -0.062 | S -0.082 | T -0.031 | Y -0.102 | E 0.113 | W -0.229
F48: Y 0.039 | V 0.044 | M -0.01 | T 0.008 | Q -0.04 | P -0.132 | R 0 | N 0.192 | S 0.037 | W -0.07
